According to US20210277128A1 (published 2021):
Values belong to the binder of their own block, whether it stands above or below them.

What was measured:
[1] = target: T1, Monomeric EGFR extracellular domain (ProSpec Bio, PKA-344) (UniProt P00533 25-645, limits assumed); assay: BLI (BLItz), antibody on anti-human IgG Fc tips, EGFR ECD 200 nM then Her3 ECD 200 nM
T1 construct: extracellular domain; Bought reagent; also called EGFR ECD
Description: Bispecific binding to EGFR and Her3 extracellular domains was measured in a biolayer interferometry (BLI) binding assay on a BLItz instrument (ForteBio, Inc.). […] Binding of EGFR ECD to the tips was recorded as biolayer interferometry signals (Δnm) over an association time of 120 seconds.

[2] = target: T2, SI-2C1, dimeric EGFR ECD fused to rabbit Fc (UniProt P00533 25-645, limits assumed); assay: ELISA, dimeric EGFR ECD-rabbit Fc coated, anti-human IgG-HRP detection
T2 construct: extracellular domain; Made in house
Description: ELISA was performed using dimeric EGFR ECD reagent, SI-2C1, fused to rabbit Fc created in house. EGFR was coated onto Maxisorp immunoplates (Nunc) at 3 μg/mL in PBS at 4° C. overnight. Plates were blocked in PBS with 3% BSA and 0.05% Tween20 for 2 hours at room temperature. […] 3 washes with PBST (1% BSA) were performed between each step.

[3] = target: T1, Monomeric EGFR extracellular domain …; assay: BLI (BLItz), antibody on anti-human IgG Fc tips, EGFR ECD 588 nM; benchmark antibody
Description: Monomeric EGFR extracellular domain binding was measured in a biolayer interferometry (BLI) binding assay on a BLItz instrument (ForteBio, Inc.). […] Binding of EGFR ECD to the tips was recorded as biolayer interferometry signals (Δnm) over an association time of 120 seconds.

- binding result [1]: binds
B1: SI-1X1 (bispecific antibody, human IgG1, kappa)
heavy: not shown
light: QSALTQPASVSGSPGQSITISCTGTSSDVGGYNFVSWYQQHPGKAPKLMIYDVSDRPSGVSDRFSGSKSGNTASLIISGLQADDEADYYCSSYGSSSTHVIFGGGTKLTVLRTVAAPSVFIFPPSDEQLKSGTASVVCLLNNFYPREAKVQWKVDNALQSGNSQESVTEQDSKDSTYSLSSTLTLSKADYEKHKVYACEVTHQGLSSPVTKSFNRGEC
notes: Tetravalent IgG-(G4S)2-scFv; heavy chain entry holds gamma-1 heavy chain, connector and scFv; Anti-Her3 IgG moiety, anti-EGFR scFv

- binding result [2]: binds
B2: SI-1C5 (antibody, human IgG1, kappa, V domains shown)
VH: QVQLQQSGAEVKKPGSSVKVSCKASGYTFTNYYIYWVRQAPGQGLEWIGGINPTSGGSNFNEKFKTRVTITVDESTNTAYMELSSLRSEDTAFYFCARQGLWFDSDGRGFDFWGQGSTVTVSS
VL: DIQMTQSPSSLSASVGDRVTITCRSSQNIVHSNGNTYLDWYQQTPGKAPKLLIYKVSNRFSGVPSRFSGSGSGTDFTFTISSLQPEDIATYYCFQYSHVPWTFGQGTKLQITR
notes: Monospecific anti-EGFR antibody

- binding result [3]: binds
B3: SI-1C4 (bispecific antibody, human IgG1, kappa, V domains shown)
VH: EVQLVESGGGLVQPGGSLRLSCAASGFTLSGDWIHWVRQAPGKGLEWVGEISAAGGYTDYADSVKGRFTISADTSKNTAYLQMNSLRAEDTAVYYCARESRVSFEAAMDYWGQGTLVTVSS
VL: DIQMTQSPSSLSASVGDRVTITCRASQNIATDVAWYQQKPGKAPKLLIYSASFLYSGVPSRFSGSGSGTDFTLTISSLQPEDFATYYCQQSEPEPYTFGQGTKVEIKR
notes: also called IC4
